{"source": "patent US8487082B2", "about": "“Synthetic scFv analogue to the 6313/G2 (anti angiotensin II type 1 receptor) monoclonal antibody variable regions” (Queen Mary & Westfield College, priority 2008, dated 2013)", "molecules": {"B1": {"name": "R6313/G2: murine scFv analogue of the 6313/G2 anti-AT1 receptor monoclonal antibody variable domains, SEQ ID NO:15 (protein)", "scFv": "YAAQPAMAQVKLQQSGPELEKPGASVKISCKASGYSFTGYNMNWVKQSNGKSLEWIGNIDPYYGGTTYNQKFKGKATLTVDKSSSTAYMQLKSLTSEDSAVYYCAREVDYWGQGTTVTVSSGGGGSGGGGSGGGGSDIELTQSPASLAVSLGQRATISYRASKSVSTSGYSYMHWNQQKPGQPPRLLIYLVSNLESGVPARFSGSGSGTDFTLNIHPVEEEDAATYYCQHIRELTRSEGTKLEIKRAAAGAPVPY", "modifications": "12D"}}, "key": {"MDA-MB-231 cells [1]": {"tested_on": "MDA-MB-231 cells", "assay": "In vivo hollow fiber assay", "set-up": "species or system balb/c nu/nu mice", "protocol": "(§1) Hollow Fiber procedures followed the method of Hollingshead. (Hollingshead et al Life Sci 57 131-41 (1995)).\n(§2) Polyvinylidene difluoride (PVDF) hollow fibers (500 kDa cut-off, 1 mm inner diameter; Spectrum Europe B.V., Breda, Netherlands) were flushed through with 70% ethanol using a blunt 21 gauge needle and 10 ml syringe. Fibers were then immersed in 70% ethanol for 72 hours, flushed through again with 70% ethanol, then distilled water, and then autoclaved at 131° C. Finally, before loading cell suspensions, fibers were flushed through with RPMI 1640 culture medium. Cells (MCF-7, T47D, and MDA-MB-231) were introduced into fibers at densities of 2.5 to 3.0×10^6 cells/ml. Fibers were then heat-sealed at 2 cm intervals and placed in Petri dishes containing 3 ml of the cell appropriate medium.\n(§3) Cell-loaded hollow fiber segments were incubated at 37° C. in culture medium overnight before implantation into pure strain 5-6 week old female balb/c nu/nu mice. Fibers were implanted into the animals under anaesthesia (2% Isofluorane). Three 2 cm fibers, each containing one of the cell lines MCF-7, T47D, or MDA-MB-231, were implanted at both subcutaneous (s.c.) and intraperitoneal (i.p.) sites into each animal. For i.p. implants, a small incision was made through the skin and musculature of the ventral abdominal wall. Fibers were placed into the peritoneal cavity and both incisions were closed with metallic suture clips (Harvard Instruments, Edenbridge UK). For s.c. implants, a small incision was made dorsally. The fibers were implanted to the left of the dorsal midline in a cranial direction. The small incision was closed with metallic suture clips.\n(§4) Mice (n=5/group) with hollow fiber implants were treated with R6313/G2 (0.07 mg/kg (2.5 nmol/kg), and 0.7 mg/kg (25 nmol/kg) in 0.1 ml PBS, subcutaneously) twice per day for six days. Control animals (n=5) received vehicle alone. 24 hours after the last injection, animals were killed by cervical dislocation and the fibers were recovered and transferred to pre-warmed RPMI 1640 medium containing 20% FBS for 30 minutes.\n(§5) Cell viability was measured using a modified MTT assay. Fibers were incubated in RPMI 1640 with 20% FBS containing 1 mg/ml MTT, and incubated at 37° C. under […], 5% CO2 for 4 hours. The reagent was aspirated, and 2 ml sterile filtered 2.5% protamine sulphate (0.9 g NaCl, 2.5 g protamine sulphate in 100 ml water) was added. Specimens were stored at 4° C. for a minimum of 24 hours in the dark to fix the formazan product. Fresh protamine sulphate (2.5%) was added and fibers were stored for a further 2 to 4 hours at 4° C. Each fiber was transferred to a well in a 24 well plate, cut in half and air-dried overnight, protected from light. Dimethyl sulphoxide (DMSO) (300 μl) was added to each well and the formazan product extracted. An aliquot (190 μl) from each well was transferred to a 96 well plate and absorbance read at 540 nm using a Multiskan Ascent photometric microplate reader (Thermo labsystem). Treated values were calculated as a percentage of the controls."}, "T47D cells [2]": {"tested_on": "T47D cells", "assay": "In vivo hollow fiber assay", "set-up": "species or system balb/c nu/nu mice", "conditions": "i.p. site, 0.7 mg/kg (25 nmol/kg) twice per day", "protocol": "as §1, §2, §3, §4, §5"}, "breast cancer cells": {"tested_on": "breast cancer cells", "assay": "Caspase-driven apoptosis (summary statement)", "assay_type": "cell-based", "source_text": "(§6) Cells were harvested using Trypsin/EDTA and counted."}, "MDA-MB-231 cells [3]": {"tested_on": "MDA-MB-231 cells", "assay": "Cell viability assay (XTT)", "assay_type": "cell-based", "conditions": "MDA-MB-231, 100 nmol angiotensin II per L, XTT, 48 hours", "protocol": "(§7) MCF-7, T47D and MDA-MB-231 breast cancer cells were obtained from The American Tissue Culture Collection (LGC Promochem, Teddington, UK). Rat aortic smooth muscle cells (RASMC) were developed from primary culture (Barker et al., 1996). MCF-7 cells were maintained in Minimal Essential Medium (MEM), T47D and MDA-MB-231 cells in RPMI 1640 medium, and RASMC were maintained in Dulbecco's Modified Eagle's Medium (DMEM). All media were supplemented with 2 mM L-glutamine, 10% fetal bovine serum (FBS), 50 U/ml penicillin and 0.05 mg/ml streptomycin. Cells were maintained at 37° C. in a humidified atmosphere ([…], 5% CO2).\n(§8) Confluent cell monolayers were removed from tissue culture flasks using trypsin/EDTA. Cells (15×10^3 per well) were seeded into 96 well tissue culture plates containing the appropriate medium for each cell line. […] Cell viability was assessed by the ability of metabolically active cells to reduce 2,3-bis[2-Methoxy-4-nitro-5-sulphophenyl]-2H-tetrazolium-5-carboxyanilide inner salt (XTT) to the coloured formazan product. Absorbance was measured using a Multiskan Ascent microplate reader (Thermo Labsystem, Helsinki, Finland) at a wavelength of 450 nm and a reference wavelength of 630 nm. Each measurement was performed in triplicate. IC50s were calculated using a non-linear regression formula using GraphPad Prism v4.0 software (GraphPad Software Inc, San Diego Calif., USA)."}, "MCF-7 cells [4]": {"tested_on": "MCF-7 cells", "assay": "Cell viability assay (XTT)", "assay_type": "cell-based", "conditions": "MCF-7, 100 nmol angiotensin II per L, XTT, 48 hours", "protocol": "as §7, §8"}, "T47D cells [5]": {"tested_on": "T47D cells", "assay": "Cell viability assay (XTT)", "assay_type": "cell-based", "conditions": "100 nmol angiotensin II per L, XTT, 48 hours", "protocol": "as §7, §8"}, "T47D cells [6]": {"tested_on": "T47D cells", "assay": "Apoptosis - caspase-3/7 activity", "assay_type": "cell-based", "source_text": "as §6"}, "MDA-MB-231 cells [7]": {"tested_on": "MDA-MB-231 cells", "assay": "In vitro hollow fiber assay", "assay_type": "cell-based", "conditions": "MDA-MB-231, in the presence of angiotensin II, 48 h", "protocol": "as §1, §2, §5"}, "MCF-7 cells [8]": {"tested_on": "MCF-7 cells", "assay": "In vitro hollow fiber assay", "assay_type": "cell-based", "conditions": "MCF-7, in the presence of angiotensin II, 48 h", "protocol": "as §1, §2, §5"}, "T47D cells [9]": {"tested_on": "T47D cells", "assay": "In vitro hollow fiber assay", "assay_type": "cell-based", "conditions": "in the presence of angiotensin II, 48 h", "protocol": "as §1, §2, §5"}}, "data": [{"molecule": "B1", "values": [{"measurement": "cell survival in hollow fibers in vivo", "setting": "MDA-MB-231 cells [1]; MBA MB 231, i.p. site, 0.7 mg/kg (25 nmol/kg) twice per day", "value": "inhibited"}, {"measurement": "cell survival in hollow fibers in vivo", "setting": "MDA-MB-231 cells [1]; MDA MB 231, s.c. site, highest dose", "value": "inhibited at the highest dose"}, {"measurement": "cell survival in hollow fibers in vivo", "setting": "T47D cells [2]", "value": "inhibited"}, {"measurement": "caspase-driven apoptosis", "setting": "breast cancer cells; angiotensin II omitted", "value": "omission of angiotensin blocks its effects"}, {"measurement": "caspase-driven apoptosis", "setting": "breast cancer cells; in the presence of up to 100 nmol angiotensin II per L", "value": "enhances caspase-driven apoptosis"}, {"measurement": "Threshold value for inhibition of cell survival (P<0.05 or better)", "setting": "MDA-MB-231 cells [3]", "value": 0.05, "unit": "µM"}, {"measurement": "Threshold value for inhibition of cell survival (P<0.05 or better)", "setting": "MCF-7 cells [4]", "value": 0.05, "unit": "µM"}, {"measurement": "Threshold value for inhibition of cell survival (P<0.05 or better)", "setting": "T47D cells [5]", "value": 1.25, "unit": "µM"}, {"measurement": "IC50", "setting": "T47D cells [5]; read-out: IC50, inhibition of cell survival", "value": 2800, "unit": "nM"}, {"measurement": "effect on angiotensin II inhibition of caspase-3/7 activity", "setting": "T47D cells [6]; 100 nmol/L angiotensin II, 12 hours", "value": "inhibition was blocked"}, {"measurement": "caspase-3/7 activity", "setting": "T47D cells [6]; R6313/G2 alone, 48 hours", "value": "dose-dependent increase of caspase-3/7 activity"}, {"measurement": "cell survival in hollow fibers in vitro", "setting": "MDA-MB-231 cells [7]", "value": "dose dependently inhibited survival"}, {"measurement": "cell survival in hollow fibers in vitro", "setting": "MCF-7 cells [8]", "value": "dose dependently inhibited survival"}, {"measurement": "cell survival in hollow fibers in vitro", "setting": "T47D cells [9]", "value": "dose dependently inhibited survival"}]}]}
